B1: hFMCL2b/H4c(Q1E-V20L)-WT (antibody, V domains shown)
VH: EVQLQESGPGLVKPSETLSLTCTVSGVSLPDYGVSWIRQPPGKGLEWLGVIWGSETTYYNSALKSRLTISKDNSKNQVSLKMSSLTAADTAVYYCAKHYYYGGSYAMDYWGQGTLVTVSS
VL: DIQMTQSPSSLSASVGDRVTITCRASQDISKYLNWYQQKPGKAVKLLIYHTSRLHSGVPSRFSGSGSGTDYTLTISSLQPEDFATYFCQQGATLPYTFGQGTKLEIK
B2: hFMCL2b/H4c-x-(Q1E)-WT (antibody, V domains shown)
VH: EVQLQESGPGLVKPSETLSLTCTVSGVSLPDYGVSWIRQPPGKGLEWIGVIWGSETTYYNSALKSRVTISKDNSKNQFSLKLSSVTAADTAVYYCAKHYYYGGSYAMDYWGQGTLVTVSS
VL: DIQMTQSPSSLSASVGDRVTITCRASQDISKYLNWYQQKPGKAVKLLIYHTSRLHSGVPSRFSGSGSGTDYTLTISSLQPEDFATYFCQQGATLPYTFGQGTKLEIK
B3: hFMCL2b/H4b(Q1E-V20L)-WT (antibody, V domains shown)
VH: EVQLQESGPGLVKPSETLSLTCTVSGVSLPDYGVSWIRQPPGKGLEWLGVIWGSETTYYNPSLKSRLTISKDNSKNQVSLKMSSLTAADTAVYYCAKHYYYGGSYAMDYWGQGTLVTVSS
VL: DIQMTQSPSSLSASVGDRVTITCRASQDISKYLNWYQQKPGKAVKLLIYHTSRLHSGVPSRFSGSGSGTDYTLTISSLQPEDFATYFCQQGATLPYTFGQGTKLEIK
B4: hFMCL2b/H4b-x-(Q1E)-WT (antibody, V domains shown)
VH: EVQLQESGPGLVKPSETLSLTCTVSGVSLPDYGVSWIRQPPGKGLEWIGVIWGSETTYYNPSLKSRVTISKDNSKNQFSLKLSSVTAADTAVYYCAKHYYYGGSYAMDYWGQGTLVTVSS
VL: DIQMTQSPSSLSASVGDRVTITCRASQDISKYLNWYQQKPGKAVKLLIYHTSRLHSGVPSRFSGSGSGTDYTLTISSLQPEDFATYFCQQGATLPYTFGQGTKLEIK
B5: hFMCL2b/H4c(Q1E)-WT (antibody, V domains shown)
VH: EVQLQESGPGLVKPSETLSVTCTVSGVSLPDYGVSWIRQPPGKGLEWLGVIWGSETTYYNSALKSRLTISKDNSKNQVSLKMSSLTAADTAVYYCAKHYYYGGSYAMDYWGQGTLVTVSS
VL: DIQMTQSPSSLSASVGDRVTITCRASQDISKYLNWYQQKPGKAVKLLIYHTSRLHSGVPSRFSGSGSGTDYTLTISSLQPEDFATYFCQQGATLPYTFGQGTKLEIK
B6: hFMCL2b/H4b(Q1E)-WT (antibody, V domains shown)
VH: EVQLQESGPGLVKPSETLSVTCTVSGVSLPDYGVSWIRQPPGKGLEWLGVIWGSETTYYNPSLKSRLTISKDNSKNQVSLKMSSLTAADTAVYYCAKHYYYGGSYAMDYWGQGTLVTVSS
VL: DIQMTQSPSSLSASVGDRVTITCRASQDISKYLNWYQQKPGKAVKLLIYHTSRLHSGVPSRFSGSGSGTDYTLTISSLQPEDFATYFCQQGATLPYTFGQGTKLEIK
B7: hFMCL2/H3 WT (antibody, V domains shown)
VH: QVQLQESGPGLVKPSETLSVTCTVSGVSLPDYGVSWIRQPPGKGLEWLGVIWGSETTYYNPSLKSRLTISKDNSKNQVSLKMSSLTAADTAVYYCARHYYYGGSYAMDYWGQGTLVTVSS
VL: DIQMTQSPSSLSASVGDRVTITCRASQDISKYLNWYQQKPGKAPKLLIYHTSRLHSGVPSRFSGSGSGTDYTLTISSLQPEDFATYYCQQGATLPYTFGQGTKLEIK
B8: hFMCL2b(V44L)/H4c(Q1E)-WT (antibody, V domains shown)
VH: EVQLQESGPGLVKPSETLSVTCTVSGVSLPDYGVSWIRQPPGKGLEWLGVIWGSETTYYNSALKSRLTISKDNSKNQVSLKMSSLTAADTAVYYCAKHYYYGGSYAMDYWGQGTLVTVSS
VL: DIQMTQSPSSLSASVGDRVTITCRASQDISKYLNWYQQKPGKALKLLIYHTSRLHSGVPSRFSGSGSGTDYTLTISSLQPEDFATYFCQQGATLPYTFGQGTKLEIK
B9: hFMCL2/H2 WT (antibody, V domains shown)
VH: QVQLQESGPGLVKPSETLSVTCTVSGVSLPDYGVSWIRQPPGKGLEWLGVIWGSETTYYNPSLKSRLTISKDTSKNQVSLKMSSLTAADTAVYYCARHYYYGGSYAMDYWGQGTLVTVSS
VL: DIQMTQSPSSLSASVGDRVTITCRASQDISKYLNWYQQKPGKAPKLLIYHTSRLHSGVPSRFSGSGSGTDYTLTISSLQPEDFATYYCQQGATLPYTFGQGTKLEIK
B10: hFMCL2b(A92N)-LCNT/hFMCH4c(Q1E) (Fab, V domains shown)
VH: EVQLQESGPGLVKPSETLSVTCTVSGVSLPDYGVSWIRQPPGKGLEWLGVIWGSETTYYNSALKSRLTISKDNSKNQVSLKMSSLTAADTAVYYCAKHYYYGGSYAMDYWGQGTLVTVSS
VL: DIQMTQSPSSLSASVGDRVTITCRASQDISKYLNWYQQKPGKAVKLLIYHTSRLHSGVPSRFSGSGSGTDYTLTISSLQPEDFATYFCQQGNTLPYTFGQGTKLEIK
B11: hFMCL2-LCNT/hFMCH4b (Fab, V domains shown)
VH: QVQLQESGPGLVKPSETLSVTCTVSGVSLPDYGVSWIRQPPGKGLEWLGVIWGSETTYYNPSLKSRLTISKDNSKNQVSLKMSSLTAADTAVYYCAKHYYYGGSYAMDYWGQGTLVTVSS
VL: DIQMTQSPSSLSASVGDRVTITCRASQDISKYLNWYQQKPGKAPKLLIYHTSRLHSGVPSRFSGSGSGTDYTLTISSLQPEDFATYYCQQGATLPYTFGQGTKLEIK
B12: hFMCL2-LCNT/hFMCH4c (Fab, V domains shown)
VH: QVQLQESGPGLVKPSETLSVTCTVSGVSLPDYGVSWIRQPPGKGLEWLGVIWGSETTYYNSALKSRLTISKDNSKNQVSLKMSSLTAADTAVYYCAKHYYYGGSYAMDYWGQGTLVTVSS
VL: DIQMTQSPSSLSASVGDRVTITCRASQDISKYLNWYQQKPGKAPKLLIYHTSRLHSGVPSRFSGSGSGTDYTLTISSLQPEDFATYYCQQGATLPYTFGQGTKLEIK

Experiments:
CD19 [1] = target: T1, CD19 (UniProt P15391 20-556, limits assumed); experiment: cell-based or functional assay
T1 sequence (looked up): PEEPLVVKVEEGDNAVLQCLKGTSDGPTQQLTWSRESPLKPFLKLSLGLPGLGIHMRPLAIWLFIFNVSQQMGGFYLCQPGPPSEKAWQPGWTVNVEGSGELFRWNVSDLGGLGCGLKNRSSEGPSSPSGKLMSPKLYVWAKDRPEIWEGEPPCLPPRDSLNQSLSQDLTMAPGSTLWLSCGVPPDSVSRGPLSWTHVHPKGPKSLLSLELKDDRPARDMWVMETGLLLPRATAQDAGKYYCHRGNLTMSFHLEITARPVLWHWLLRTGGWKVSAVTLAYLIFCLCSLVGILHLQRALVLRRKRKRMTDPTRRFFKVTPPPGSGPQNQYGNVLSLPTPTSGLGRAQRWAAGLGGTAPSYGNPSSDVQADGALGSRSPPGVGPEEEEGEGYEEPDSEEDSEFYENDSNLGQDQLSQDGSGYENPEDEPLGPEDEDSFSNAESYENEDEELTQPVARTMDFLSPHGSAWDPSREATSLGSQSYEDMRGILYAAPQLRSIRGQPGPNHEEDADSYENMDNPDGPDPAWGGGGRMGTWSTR

CD19 [2] = target: T2, CD19 (UniProt P15391 20-556); experiment: flow
T2 chain: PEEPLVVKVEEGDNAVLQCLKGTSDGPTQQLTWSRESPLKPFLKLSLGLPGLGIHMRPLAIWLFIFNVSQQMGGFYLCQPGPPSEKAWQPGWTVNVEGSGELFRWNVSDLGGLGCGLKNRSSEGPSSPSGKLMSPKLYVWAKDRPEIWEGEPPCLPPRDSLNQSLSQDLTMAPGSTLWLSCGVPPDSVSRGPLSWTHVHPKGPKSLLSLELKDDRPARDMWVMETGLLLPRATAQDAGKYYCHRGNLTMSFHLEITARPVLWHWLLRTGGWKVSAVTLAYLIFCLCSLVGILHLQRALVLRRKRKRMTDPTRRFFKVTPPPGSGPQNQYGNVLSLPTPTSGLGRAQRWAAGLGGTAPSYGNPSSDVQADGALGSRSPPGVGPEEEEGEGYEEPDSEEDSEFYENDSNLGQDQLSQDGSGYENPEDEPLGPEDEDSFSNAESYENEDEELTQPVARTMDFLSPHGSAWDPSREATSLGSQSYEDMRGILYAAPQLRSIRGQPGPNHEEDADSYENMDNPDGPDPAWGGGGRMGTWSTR

CD19 [3] = target: T2, CD19; experiment: flow cytometry cell binding; FIG. 5; WT switch (no PNE)

| Binder | EC50 of cytotoxicity (LDH), sCAR-T cells + switch vs CD19+ RS4;11, Average of the repeat assays (CD19 [1]) [nM] | EC50 of cytotoxicity (LDH), sCAR-T cells + switch vs CD19+ RS4;11, assay DTR-5-15 (PBMC) (CD19 [1]) [nM] | EC50 of cytotoxicity (LDH), sCAR-T cells + switch vs CD19+ RS4;11, assay DTR-5-16 (CD4:CD8) (CD19 [1]) [nM] | EC50 of cytotoxicity (LDH), sCAR-T cells + switch vs CD19+ RS4;11, assay DTR-5-50 (PBMC) (CD19 [1]) [nM] | EC50 of cytotoxicity (LDH), sCAR-T cells + switch vs CD19+ RS4;11, assay DTR-5-51 (CD4:CD8) (CD19 [1]) [nM] | EC50 (CD19 [2]) [nM] | EC50 (CD19 [3]) [nM] |
| --- | --- | --- | --- | --- | --- | --- | --- |
| B1 | 0.013 | 0.00752 | 0.0153 | 0.0144 | 0.0148 | 1.18 | – |
| B2 | 0.0442 | 0.0283 | 0.0818 | 0.0151 | 0.0515 | 16.9 | – |
| B3 | 0.00996 | 0.00963 | 0.0131 | 0.00748 | 0.0096 | 0.875 | – |
| B4 | 0.0538 | 0.0296 | 0.0776 | 0.0438 | 0.0639 | 1.87 | – |
| B5 | 0.00951 | 0.0071 | 0.00941 | 0.00825 | 0.0133 | 0.809 | – |
| B6 | 0.0113 | 0.00715 | 0.0105 | 0.00697 | 0.0207 | 0.987 | – |
| B7 | 0.0876 | 0.139 | 0.0771 | 0.0614 | 0.0726 | – | 23.9 |
| B8 | 0.00745 | 0.00204 | 0.00845 | 0.00701 | 0.0123 | 1.72 | – |
| B9 | 0.0843 | 0.141 | 0.079 | 0.0386 | 0.0785 | – | 45.6 |
| B10 | 0.00992 | 0.00873 | 0.00919 | 0.00655 | 0.0152 | – | – |
| B11 | 0.0156 | 0.0214 | 0.00743 | 0.0187 | 0.0146 | – | – |
| B12 | 0.018 | 0.0166 | 0.016 | 0.0092 | 0.0301 | – | – |

— patent publication US20190359697A1 (Scripps Research, published 2019)
